Conditions: Aspergillus oryzae (strain ATCC 42149 / RIB 40), DSC, reversible: yes, whole UniProt chain shown; for denaturant m value / denaturant midpoint (higher = more stable) / unfolding free energy: Urea; for Tm / heat capacity change of unfolding / unfolding enthalpy (calorimetric): Thermal
[1] = pH 2.8, 27.75 °C, glycine 30 mM

B1: Guanyl-specific ribonuclease T1 wild type, P00651 (protein)
chain: MMYSKLLTLTTLLLPTALALPSLVERACDYTCGSNCYSSSDVSTAQAAGYQLHEDGETVGSNSYPHKYNNYEGFDFSVSSPYYEWPILSSGDVYSGGSPGADRVVFNENNQLAGVITHTGASGNNFVECT
With B1 as the protein, how does the denaturant m value (pH 2.8, 17.1 °C, glycine 30 mM) read?
The denaturant m value was 2.44 kcal/mol/M.

What about the “denaturant midpoint (higher = more stable)” value (“denaturant midpoint” below) (pH 2.8, 17.1 °C, glycine 30 mM) of the same protein?
Its value is 2.25 M.

What about the unfolding free energy (pH 2.8, 17.1 °C, glycine 30 mM) of the same protein?
Its unfolding free energy is 5.41 kcal/mol.

And the denaturant m value (pH 2.8, 21.1 °C, glycine 30 mM)?
Its denaturant m value is 2.43 kcal/mol/M.

And the “denaturant midpoint” value (pH 2.8, 21.1 °C, glycine 30 mM)?
Its value is 2.02 M.

And the unfolding free energy (pH 2.8, 21.1 °C, glycine 30 mM)?
Its unfolding free energy is 4.85 kcal/mol.

And the denaturant m value (pH 2.8, 24.9 °C, glycine 30 mM)?
Its denaturant m value is 2.33 kcal/mol/M.

And the “denaturant midpoint” value (pH 2.8, 24.9 °C, glycine 30 mM)?
Its value is 1.8 M.

What about the unfolding free energy (pH 2.8, 24.9 °C, glycine 30 mM) of the same protein?
Its unfolding free energy is 4.33 kcal/mol.

And the denaturant m value [1]?
Its denaturant m value is 2.45 kcal/mol/M.

And the “denaturant midpoint” value [1]?
The value was 1.44 M.

What about the unfolding free energy [1] of the same protein?
The unfolding free energy was 3.48 kcal/mol.

And the Tm (pH 2.8, glycine 30 mM)?
Its Tm is 42.6 °C.

And the “heat capacity change of unfolding” value (pH 2.8, glycine 30 mM)?
The value was 2.2 kcal/mol/K.

And the “unfolding enthalpy (calorimetric)” value (pH 2.8, glycine 30 mM)?
Its value is 95 kcal/mol.

What about the denaturant m value (pH 5.95, 19.05 °C, MES 30 mM) of the same protein?
Its denaturant m value is 1.19 kcal/mol/M.

What about the “denaturant midpoint” value (pH 5.95, 19.05 °C, MES 30 mM) of the same protein?
Its value is 6.64 M.

What about the unfolding free energy (pH 5.95, 19.05 °C, MES 30 mM) of the same protein?
The unfolding free energy was 7.94 kcal/mol.

What about the denaturant m value (pH 5.95, 22 °C, MES 30 mM) of the same protein?
Its denaturant m value is 1.19 kcal/mol/M.

And the “denaturant midpoint” value (pH 5.95, 22 °C, MES 30 mM)?
Its value is 6.32 M.

What about the unfolding free energy (pH 5.95, 22 °C, MES 30 mM) of the same protein?
The unfolding free energy was 7.55 kcal/mol.

What about the denaturant m value (pH 5.95, 29.1 °C, MES 30 mM) of the same protein?
Its denaturant m value is 1.18 kcal/mol/M.

And the “denaturant midpoint” value (pH 5.95, 29.1 °C, MES 30 mM)?
The value was 5.45 M.

What about the unfolding free energy (pH 5.95, 29.1 °C, MES 30 mM) of the same protein?
Its unfolding free energy is 6.51 kcal/mol.

What about the Tm (pH 5.95, MES 30 mM) of the same protein?
The Tm was 52.8 °C.

What about the “heat capacity change of unfolding” value (pH 5.95, MES 30 mM) of the same protein?
The value was 1.49 kcal/mol/K.

And the “unfolding enthalpy (calorimetric)” value (pH 5.95, MES 30 mM)?
The value was 104 kcal/mol.

What about the denaturant m value (pH 7, 19.2 °C, MOPS 30 mM) of the same protein?
Its denaturant m value is 1.21 kcal/mol/M.

What about the “denaturant midpoint” value (pH 7, 19.2 °C, MOPS 30 mM) of the same protein?
Its value is 5.26 M.

And the unfolding free energy (pH 7, 19.2 °C, MOPS 30 mM)?
Its unfolding free energy is 6.29 kcal/mol.

What about the denaturant m value (pH 7, 21.1 °C, MOPS 30 mM) of the same protein?
The denaturant m value was 1.1 kcal/mol/M.

What about the “denaturant midpoint” value (pH 7, 21.1 °C, MOPS 30 mM) of the same protein?
Its value is 4.98 M.

What about the unfolding free energy (pH 7, 21.1 °C, MOPS 30 mM) of the same protein?
Its unfolding free energy is 5.95 kcal/mol.

What about the denaturant m value (pH 7, 23.05 °C, MOPS 30 mM) of the same protein?
Its denaturant m value is 1.2 kcal/mol/M.

What about the “denaturant midpoint” value (pH 7, 23.05 °C, MOPS 30 mM) of the same protein?
The value was 4.86 M.

What about the unfolding free energy (pH 7, 23.05 °C, MOPS 30 mM) of the same protein?
Its unfolding free energy is 5.81 kcal/mol.

And the denaturant m value (pH 7, 25 °C, MOPS 30 mM)?
The denaturant m value was 1.2 kcal/mol/M.

And the “denaturant midpoint” value (pH 7, 25 °C, MOPS 30 mM)?
The value was 4.58 M.

What about the unfolding free energy (pH 7, 25 °C, MOPS 30 mM) of the same protein?
Its unfolding free energy is 5.47 kcal/mol.

And the denaturant m value (pH 7, 27 °C, MOPS 30 mM)?
Its denaturant m value is 1.2 kcal/mol/M.

And the “denaturant midpoint” value (pH 7, 27 °C, MOPS 30 mM)?
Its value is 4.14 M.

And the unfolding free energy (pH 7, 27 °C, MOPS 30 mM)?
The unfolding free energy was 4.95 kcal/mol.

What about the denaturant m value (pH 7, 29 °C, MOPS 30 mM) of the same protein?
Its denaturant m value is 1.27 kcal/mol/M.

What about the “denaturant midpoint” value (pH 7, 29 °C, MOPS 30 mM) of the same protein?
Its value is 3.93 M.

What about the unfolding free energy (pH 7, 29 °C, MOPS 30 mM) of the same protein?
Its unfolding free energy is 4.7 kcal/mol.

What about the Tm (pH 7, MOPS 30 mM) of the same protein?
The Tm was 48.2 °C.

What about the “heat capacity change of unfolding” value (pH 7, MOPS 30 mM) of the same protein?
Its value is 1.72 kcal/mol/K.

What about the “unfolding enthalpy (calorimetric)” value (pH 7, MOPS 30 mM) of the same protein?
Its value is 95.2 kcal/mol.

What about the denaturant m value (pH 7.9, 19.05 °C, HEPPSO 30 mM) of the same protein?
The denaturant m value was 1.11 kcal/mol/M.

What about the “denaturant midpoint” value (pH 7.9, 19.05 °C, HEPPSO 30 mM) of the same protein?
Its value is 4.19 M.

What about the unfolding free energy (pH 7.9, 19.05 °C, HEPPSO 30 mM) of the same protein?
The unfolding free energy was 5.01 kcal/mol.

And the denaturant m value (pH 7.9, 22 °C, HEPPSO 30 mM)?
The denaturant m value was 1.25 kcal/mol/M.

And the “denaturant midpoint” value (pH 7.9, 22 °C, HEPPSO 30 mM)?
Its value is 3.91 M.

What about the unfolding free energy (pH 7.9, 22 °C, HEPPSO 30 mM) of the same protein?
The unfolding free energy was 4.67 kcal/mol.

And the denaturant m value (pH 7.9, 25 °C, HEPPSO 30 mM)?
The denaturant m value was 1.28 kcal/mol/M.

What about the “denaturant midpoint” value (pH 7.9, 25 °C, HEPPSO 30 mM) of the same protein?
The value was 3.44 M.

And the unfolding free energy (pH 7.9, 25 °C, HEPPSO 30 mM)?
Its unfolding free energy is 4.11 kcal/mol.

And the denaturant m value (pH 7.9, 28.95 °C, HEPPSO 30 mM)?
The denaturant m value was 1.19 kcal/mol/M.

What about the “denaturant midpoint” value (pH 7.9, 28.95 °C, HEPPSO 30 mM) of the same protein?
Its value is 2.95 M.

And the unfolding free energy (pH 7.9, 28.95 °C, HEPPSO 30 mM)?
Its unfolding free energy is 3.52 kcal/mol.

What about the Tm (pH 7.9, HEPPSO 30 mM) of the same protein?
The Tm was 43.3 °C.

And the “heat capacity change of unfolding” value (pH 7.9, HEPPSO 30 mM)?
The value was 1.65 kcal/mol/K.

And the “unfolding enthalpy (calorimetric)” value (pH 7.9, HEPPSO 30 mM)?
Its value is 87.1 kcal/mol.
